The values that follow come from paper doi:10.1101/2024.05.22.595265 (bioRxiv, 2024).

The test addresses T1, Aurora-A kinase domain 122-403 C290A,C393A (UniProt O14965 122-403, C290A | C393A).
T1 construct: Aurora-A Ser/Thr kinase, kinase domain, residues 122-403
T1 sequence (looked up): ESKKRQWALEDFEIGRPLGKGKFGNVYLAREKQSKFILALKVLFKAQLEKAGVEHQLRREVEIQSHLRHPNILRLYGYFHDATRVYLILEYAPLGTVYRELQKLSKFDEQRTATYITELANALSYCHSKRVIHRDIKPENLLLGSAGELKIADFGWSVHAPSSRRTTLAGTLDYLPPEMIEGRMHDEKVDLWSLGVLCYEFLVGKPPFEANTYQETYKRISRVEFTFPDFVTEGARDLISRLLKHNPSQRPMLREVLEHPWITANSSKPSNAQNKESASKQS
The experiment in a line: NMR titration; 1H-15N HSQC of 15N-labelled N-myc constructs (150-315 uM); aliquots of Aurora-A (305-400 uM) added up to [N-myc]:[Aurora-A] 1:1.4; 20 mM (K/H)3PO4 pH 6.5, 150 mM NaCl, 2 mM beta-mercaptoethanol, 1% glycerol, 5 mM MgCl2, 5 mM ADP. As to conditions: both partners purified.

B1: N-myc transactivation domain, N-myc 1-137 (domain or fragment)
chain: GAMMPSCSTSTMPGMICKNPDLEFDSLQPCFYPDEDDFYFGGPDSTPPGEDIWKKFELLPTPPLSPSRGFAEHSSEPPSWVTEMLLENELWGSPAEEDAFGLGGLGGLTPNPVILQDCMWSGFSAREKLERAVSEKLQHG
notes: 15N-labelled for the NMR titration; also called N-myc TAD; N-myc_(1-137) TAD; not shown: His-NusA, N-terminal, cleaved
As for B1, the binding result is “binds”.

B2: N-myc 64-137 (domain or fragment)
chain: GAMGSRGFAEHSSEPPSWVTEMLLENELWGSPAEEDAFGLGGLGGLTPNPVILQDCMWSGFSAREKLERAVSEKLQHG
notes: N-myc residues 64-137 (AIH and MBII); 15N-labelled; not shown: His-NusA, N-terminal, cleaved
Turning to B2, the binding result is on record as “binds”.
